{"source": "a protein production outcome set (Wang et al. 2014)"}
{"assay": "label from the status in PepcDB records"}
{"sequence": "MEERNEQVVEEVKEEVKEAQVEEAVTSEDSEESVEEKSEAALLQEKVDELQAKLTETEGRMLRLQADFENYKRRVQMDKQAAEKYRAQSLVSDILPALDNFERAMQVEANDEQMKSLLQGMEMVYRQLLEAMTKEGVEAIEAVGKQFDPHEHQAVMQVEDSEFESNAVVEEFQKGYKLKDRVIRPSMVKVNQ", "protein production": "failed"}
{"sequence": "MEESTVQAPSKRRCSVYEVDGFRFRRKKKRTTESSFVEPIQKEVSNSDSCGHVNDDLNNEEKENKLNVATVPIKSRETVSLAKQEEKTKKLYCESISKDQSEEQRLKALCEAVWTEIYKEAIEEKLPEKGTSLRVLEDVRVAFLDQLTWYLDNPEQRSKTVSEISRPNPINLELEVKIKSLEHDLNCYCNELLGWSNAKSILEEPAKDNKSNETAFSIEERAKKIAVSLSSPYQPQLTRLIKEATVCLDINFTELLEICRIVLTFKNQTAERIKVSYKQELFSNHYQHENS", "protein production": "failed"}
{"sequence": "MEFILEPWHWFVLGILLMLSELVITAFAALWFGIAAIMVSVLLWLFPMMGITTQVIMWIILSVLCTLLWFKFIKPLSIDKTKAGLSREATIGQIGMVIRVGLSHEQIVVRFALPVLGADEWNCRSLAPVEVGDRVCVVDIMGNDLVVQPHIPINNK", "protein production": "failed"}
{"sequence": "MEFPKMLTRKIKLWDINAHITCRLCSGYLIDATTVTECLHTFCRSCLVKYLEENNTCPTCRIVIHQSHPLQYIGHDRTMQDIVYKLVPGLQEAEMRKQREFYHKLGMEVPGDIKGETCSAKQHLDSHRNGETKADDSSNKEAAEEKPEEDNDYHRSDEQVSICLECNSSKLRGLKRKWIRCSAQATVLHLKKFIAKKLNLSSFNELDILCNEEILGKDHTLKFVVVTRWRFKKAPLLLHYRPKMDLL", "protein production": "failed"}
{"sequence": "MEFWESSFIEKQTMWGFEPTESAILTKDFFLEKNVKNILVPGIGYGRNAKVFIDNGINVTGIEISKTAIDLARENGLEDVSMYHGSVNEMPFDNKLYDGIFSHALLHLLNEQEREKFIEDCYNQLKPGGYMVFTTVSKKAPMYGKGKQLDKDYYEIMDGVKMFFYDSESIKKDFNQYRLVQVSEIDEPNKNMANKPSINFLMIKCKKER", "protein production": "failed"}
{"sequence": "MEGFHMVSDMCPQITGWRIYVFVVRVFKNVISPNVFELGLILADYAGSNSRIEATVDRRLAPFYEDRFVENEWKTITSFLVRKATDSVRATKHEYGILFMDRTVVVEAPPRSPPVPDFDFTPFDYILEKSAYKNVLVDVVGALVDVGGLTTDYYGLKMSFKIKDRYNEVLECEARNKQAEYLDGYFKSLGKGNFVVALSFWRLTELSNPKLASHGAISKVVANPDIPEVADIAMVVF", "protein production": "failed"}
{"sequence": "MEGIMNPYTALPTPQQLLAIEQSVYSSDPFRQGLTPPQMPGDHMHPYGAEPLFHDLDSDDTSLSNLGDCFLATSEAGPLQSRVGNPIDHLYSMQNSYFTS", "protein production": "not failed"}
{"sequence": "MEGITYMNLGTNDKLPKLNTHYSSLSKRLMASFFDNVIISALSYLLSIIIFIIMTIFSFRYLDEFINHIYLIYFSLHFLVAFFYYITMESSSFQGTLGKLIADIKVVKLNGDKVSIFQAFCRFFIANILLYPAYFFYALVLYNVSNQIIINHSCNPYKINSFYFYGLISSSLIYLIYKLVMLITILISNKKQGIHDILIKTLVIIR", "protein production": "failed"}
{"sequence": "MEGKGSFSENLVKRLQLVKANRSHLAPLIDLLRSKVSKSVKRNKHFFRDYADQIYIVSSGFKEFILPIVTEFGIKEEHVMANTFTFDNDGNIIGCDANNPLSQDKGKIKLMEKLGLTGDVHVIGDGYTDYEIRGAGLASKFYAFTENVSRAAVTAKADSIAPSFDEILFQEKL", "protein production": "failed"}
{"sequence": "MEGNFIVARFDKNTSFFEDLEEVCNKHGVKAGTVVWAIGMLKDFEVGYWNGQDYEKETFRERLEIVSLHGTIAENDPKYHIHASGARSNHMIVGGHLFSATVDPLIEIQIMKIEGPKMTRVQDPSDKLFKLKIE", "protein production": "failed"}
{"sequence": "MEGSQQTITSKQLVRMLKDASRGSKGKGSGEMKFCFLIGAGASISSGIPSGAKLAWDWLQQIKEDCDGEDFEDWKIEIKMPDQHIEERVGEFYPEIYEKRFGHAPETGYDYIRGLMEGREPSLGYLILANIMVREKHNVVITTNFDNLLEDAIRTYTKEKPFIAGHEALADYVPKRSDRPIILKLHRDLFLQPFSDQLNTDILQAAWESILGKFLSDYHLIVLGYGGNDGSLMNYLLKLKNRKPIYWCVRNTDKATSKSLWNTLSPKAKRLLKNDGYLVPIDDFDRFMYDCYAALGYKFLEGIEKIEKPKSIHEILKPNYARIESIQTQLRQLSQTEEELSKESFQSIKSFLPDSWMWILKANQEKDIDKKDKIYREGIAKYPQDANLLGDYADFLCDICHDYDRAEAYYKRALEADPNHANTLGNYALFLKDVRHDYDQAEAYYKRALAADPNHANNLGNYANFLYNIRCDYDQAETYYKKALEADPNHANTLGNYANFLCDIRHDYDQAEGYYKKALEADPKNAITLGNYALFLNDIRHAYDQAEAYYKRALEVDPKSANKLGNYAHFLITCRGDFKRADSLIQQAFENADNDEETKPLQAKLWFYRYAHYYEEWGAEAEKELAALLNVGAKSIGWNLAPDIELARKNKHPHIEQVEAFAKALTEKAQ", "protein production": "failed"}
{"sequence": "MEGYRLLYPMRTYLIVSGHGEETNVMAADWVTVVSFDPFIVGVAVAPKRTTHKLIKKYGEFVISVPSLDVLRDVWIAGTKKGPSKLKEMSVTLIPSKKVKVPSIEEALANIECRVIDARSYGDHTFFVGEVVGYTYKDYAFEKGKPNLKAKFLAHVSWSEFVTFSEKVHKAE", "protein production": "not failed"}
{"sequence": "MEHICGTSRIAGFRFSLYPMTDDFISVIKSALKKTDTSKVWTKTDHISTVLRGSIDHVFDAAKAIYLHAANSEQHIVMNGTFSIGCPGDTQGDTYLSKGDKRVNEDAVRGLKAEAPCQFALYPMNEPDYMGLIMEAVDIAKAQGTFVQGVHYASELDGDAHDVFSTLEAVFRMAEQQTNHITMTVNLSANSPSRKNRKQG", "protein production": "not failed"}
{"sequence": "MEHKISEPNARVDVADVLRGLAVMGIIILHSIEHFNFYSFPDTVPCEWMKFTDKAIWNGLFFVFSNKAYAIFALLFGFSFYIQDNNQQRRGKDFRLRFIWRMALLFIIGQFNAAFFTGEILTMYAMLGLILPLSCRLSDRSIAIFATLLIIQPIDWCKVIYALCNPDYVAGPGLASHYFGIAFDVQKNGTFLETIRMNLWEGQLANLTWALEHGRILQTPALFLFGMLVGRKGLFLYSEQNEQHWLKALGISLICFFPLYGLNNMLPEFITRNAIRVPLQLIISSLSNLSFMVLLVSGLLITFYRIKDRRFLMRFTSYGKMSLTNYIGQSVIGSLLFYHWGFELGRFLGITYSFFFGILFVLLQMAFCSWWLSHFKHGPFEGLWKRLTWIGNNKRK", "protein production": "failed"}
{"sequence": "MEHREKCTRCGQCLEVCSRYEDLGVLDRLYGYLDGSSNIDSESLLRCLTCGLCISACPENLGIKPLISPSRQKWINENGLSERLEHHHHHH", "protein production": "failed"}
{"sequence": "MEHTWMMKYFAEFFGTIILVVFGNGAVANSVLTKTGGNSHDGQANGGWLLIAFSFGFGVMLPAMMFGSISGNHLNPAVTLAQACAGAFPWNQVLPYILVQMLGAIVGQLLLVAVYWPFIAKTSSDDAVFASFSTGDIADSKLNGFITEFVGTAILLFVAVGLYRGMFFKQSEDIANIGVGFLITALVMAVGGPTGPALNPARDLGPRIVYALCPLPHKGSAHWDYGWIPVVAPIAGGICGALLYKLAFGL", "protein production": "failed"}
{"sequence": "MEICSMSQPSSDQSVASFESKSLNILGEHIPVSELAGCEECDTVYRKVKLAAGERAYCVCCGAELYRKTRSLTSLLALVVTALIIFAIANSFPIVKVELQGNTSQTTLLGAAWTMFQIDRALVGILILFTTFIVPLLDLLLLTYILSSVGIFKQRPPYLRLALRILFLFRVWGMVEVFLIGVLVTLVKLVGMVVVIPGVALWAFAILSLLLVYIASVKIKDIWDEVDRCVP", "protein production": "failed"}
{"sequence": "MEIFELILLMLSAVFLSNVLSRFLPSIAVPLIQVVLGIILAIPLGDHTMDLNPELFLLLFMAPILFNDGASTDKKSLWKNRKAILSLSIGLVFVTVGVLGAFIHYLIPAIPFAAAFALAAALAPTDAVAVGALAEKVRVPHKIMHILEGESLINDASGLVSFQFAVLALVTGTFSFMSAGTSFLLLSLGGIALGAILSLLKIMLMRGLRQLGIENMTSFMLMEILLPFLIFMVAEKVGVNGILAVVSGGMVHSFSYKGLNPEIAQLNLLSKNTWSVIIFSLNGLVFILLGTQLPQILMTIWQDANIQKGMLFVYIIGITFLLLGLRFLWILFFRNYEENPKVDLVSRLKNTFLYTVAGVRGTITLVSALSLPFVLGNGNAFPERDLLIFIAAGVIITTLLLANFTLPLFADKKDKVTADHTTDIVLLRDIVQQLQAYKTDENAVEMNKVLNMYNNRIFSLMEHKEVNATEKELRRLTQEWQLENTRRLVFERKIDTGVGLSHMMRLGKRLYVQTRAEKYRARMRYRQLLSHRFRDFRFVPLTFEERRKEIAKLQNENNLFVMQKLQDLDSNEYNPEIISLYLMNFERALGRGKNKKESNDEALQTTIDLASQIERETIQRYFEKGTITRKEMKVYRDNLLAIEANMQLEF", "protein production": "failed"}
{"sequence": "MEIILLIIAAVVLFYFYNTLKEYLKNPLNPKTKTEEYDLKNDPYLLAQSSPLDKFKQTQTGAYMRLLKFLDIQKNALDNALRTLFIHELEQPLNSEQQNLAKELLNEPVDKKENFESLCQEIADHTHGEYTKRLKLVEFLMLLAYADGILDSKEKELFLDVGVFLQIDNQDFNELYDNFERFNAIEIPMSLEEAKSLFEIQTHTTKQDLEKKALDLSAPYYHKMNDNKRYSEQDFISLKKIAIASQLLENDLKDS", "protein production": "failed"}
{"sequence": "MEIKNIKEFEKASKKLQKDTLKIALALLFLIGAALLALIFGQANSKGLLLIFAAVIGGYMAMNIGANDVSNNVGPAVGSKAISMGGAILIAAICEMLGAIIAGGEVVSTIKGRIVSPEFINDAHIFINVMLASLLSGALWLHVATLIGAPVSTSHSVVGGIMGAGMAAAGMVAVNWHFLSGIVASWVISPLMGALIAMFFLMLIKKTIAYKEDKKSAALKVVPYLVALMSLTFSWYLIVKVLKRLYALNFEIQLACGCILALLIFILFKRFVLKKAPQLENSHESINELFNVPLIFAAALLSFAHGANDVANAIGPLAAISQTLEDANSPIGNTLSSVPLWIMVVGAAGIALGLSLYGPKLIKTVGSEITELDKMQAFCIALSAVITVLLASQLGLPVSSTHIVVGAVFGVGFLRERLREQSRRRFARIRDNIVAAHFGEDLEEIEGFLERFDKANLKEKSLMLESLKKSKNTAIALELKKKEKKSLKKVYKEEVIKRSILKKIVTAWLVTVPVSALLGALLFVALGFIEKYF", "protein production": "failed"}
